Article PMC10462622 (Nature Communications, 2023)

What was measured:
[1] = molecular target: T1, near-full-length human CUL5 (residues 12-780) (human, UniProt Q93034 12-780); experiment: cryo-EM structure; details: both partners purified
T1 construct: not shown: GB1, N-terminal, cleaved
T1 sequence: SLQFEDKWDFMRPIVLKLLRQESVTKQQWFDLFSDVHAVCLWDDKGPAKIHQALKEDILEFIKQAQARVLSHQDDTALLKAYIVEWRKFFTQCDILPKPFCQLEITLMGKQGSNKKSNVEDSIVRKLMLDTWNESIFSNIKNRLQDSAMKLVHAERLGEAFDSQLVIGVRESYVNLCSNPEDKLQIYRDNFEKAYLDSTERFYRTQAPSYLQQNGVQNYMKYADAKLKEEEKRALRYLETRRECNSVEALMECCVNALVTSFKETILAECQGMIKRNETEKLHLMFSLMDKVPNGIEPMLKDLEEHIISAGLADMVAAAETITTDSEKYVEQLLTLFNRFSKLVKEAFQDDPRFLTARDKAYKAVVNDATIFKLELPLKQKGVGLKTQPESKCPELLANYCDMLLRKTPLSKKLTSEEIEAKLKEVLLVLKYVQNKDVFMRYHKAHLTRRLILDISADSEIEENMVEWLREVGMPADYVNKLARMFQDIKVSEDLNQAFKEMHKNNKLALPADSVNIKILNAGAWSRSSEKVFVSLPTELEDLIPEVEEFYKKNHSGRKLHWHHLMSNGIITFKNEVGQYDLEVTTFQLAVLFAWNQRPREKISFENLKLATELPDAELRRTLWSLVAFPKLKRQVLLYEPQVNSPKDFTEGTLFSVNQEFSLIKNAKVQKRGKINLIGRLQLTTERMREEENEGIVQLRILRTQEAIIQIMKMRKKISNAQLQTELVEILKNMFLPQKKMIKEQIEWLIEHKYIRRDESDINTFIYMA

[2] = molecular target: T2, HIV-1 NL4-3 Vif N48H (residues 1-176) (HIV-1 (pNL4-3), UniProt P12504 1-176, N48H); experiment: cryo-EM structure; details: both partners purified
T2 construct: also called N48H Vif; N48H NL4-3 Vif

B1: human RBX2 (residues 1-113) (natural protein)
chain: MADVEDGEETCALASHSGSSGSKSGGDKMFSLKKWNAVAMWSWDVECDTCAICRVQVMDACLRCQAENKQEDCVVVWGECNHSFHNCCMSLWVKQNNRCPLCQQDWVVQRIGK
notes: also called RING-box protein 2; source: E. coli BL21(DE3), co-expressed with GB1-CUL5 (pETDuet-1), purified as CUL5/RBX2 complex (Ni-NTA, SEC)
binding result [1]: binds

B2: human CBF-β (residues 1-156) (domain or fragment)
chain: MPRVVPDQRSKFENEEFFRKLSRECEIKYTGFRDRPHEERQARFQNACRDGRSEIAFVATGTNLSLQFFPASWQGEQRQTPSREYVDLEREAGKVYLKAPMILNGVCVIWKGWIDLQRLDGMGCLEFDEERAQQEDALAQQAFEEARRRTREFEDR
binding result [2]: binds
